Measured values as given in patent US20240209099A1 (SUZHOU TRANSCENTA THERAPEUTICS, published 2024).
Where “and” joins values, the source holds several entries; their conditions need not be identical. Identical values can stand only once. One block for each binder: values may come before it.

Key:
[1] = target: T1, Recombinant Human VEGFR2/KDR Protein, His tag (hVEGFR2-his) (human, UniProt P35968 20-764); experiment: competition ELISA on coated hVEGFR2-his: hybridoma antibody titrated against 100 ng/ml chimeric 002C, anti-human IgG Fc-HRP
T1 construct: Expressed in HEK293, bought from ACRO Biosystems; also called human VEGFR2-his; Human VEGFR2/KDR-His
T1 sequence (P35968 other isoform, or with tags, fused parts or gaps): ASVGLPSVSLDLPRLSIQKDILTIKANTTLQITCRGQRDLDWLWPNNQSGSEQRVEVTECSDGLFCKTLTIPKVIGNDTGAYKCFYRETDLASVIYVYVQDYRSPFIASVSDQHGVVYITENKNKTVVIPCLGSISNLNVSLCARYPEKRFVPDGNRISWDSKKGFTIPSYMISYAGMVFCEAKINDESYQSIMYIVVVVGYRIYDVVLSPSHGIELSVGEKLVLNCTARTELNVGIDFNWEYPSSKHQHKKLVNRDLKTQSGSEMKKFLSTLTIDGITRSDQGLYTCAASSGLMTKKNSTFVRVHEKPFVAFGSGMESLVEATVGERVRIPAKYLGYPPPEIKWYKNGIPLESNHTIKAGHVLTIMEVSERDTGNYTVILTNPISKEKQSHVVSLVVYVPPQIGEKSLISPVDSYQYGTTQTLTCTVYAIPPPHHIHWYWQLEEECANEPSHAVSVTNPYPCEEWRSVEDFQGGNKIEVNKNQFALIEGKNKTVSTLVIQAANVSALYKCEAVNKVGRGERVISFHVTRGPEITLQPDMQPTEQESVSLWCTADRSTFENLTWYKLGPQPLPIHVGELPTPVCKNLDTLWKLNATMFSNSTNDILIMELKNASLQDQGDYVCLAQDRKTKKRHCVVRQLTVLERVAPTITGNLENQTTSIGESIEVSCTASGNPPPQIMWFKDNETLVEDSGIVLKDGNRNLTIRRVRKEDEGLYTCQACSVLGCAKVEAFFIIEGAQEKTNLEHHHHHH

[2] = target: T1, Recombinant Human VEGFR2/KDR Protein, …; experiment: ELISA, hVEGFR2-his coated
Method: Same protocol of Example 2 antibody screening by ELISA assay. Briefly, 0.5 μg/ml hVEGFR2-his was coated and serially diluted purified antibodies would bind to coated antigen. Using HRP conjugated goat anti-mouse Fc antibody could detect binding signals of each antibody.
The hybridoma antibodies have similar affinity to human.

[3] = target: T1, Recombinant Human VEGFR2/KDR Protein, …; experiment: SPR (Biacore), antibody captured by anti-Fc, antigen 2.5-80 nM; second entry for mAb054 10D11F4D1F6 (r13; r11 gives another run)
Method: A CM5 sensor chip was activated in each flow cell by 7-min injection (10 μl/min) of freshly prepared 1:1 50 mM N-hydroxysuccinimide (NHS): 200 mM 1-ethyl-3-(3-dimethylaminopropyl)-carbodiimide (EDC). Then anti-human Fc antibody (GE Healthcare) in a concentration of 10 μg/ml in 10 mM sodium acetate buffer PH 5.0 was injected onto the activated chip at 10 μl/min (HBS-EP running buffer: 10 mM HEPES, 150 mM NaCl, 3.4 mM EDTA, 0.005% surfactant P20, pH 7.4). The remaining active coupling sites were blocked by 7 min injection of 1M ethanolamine at 10 μl/min. The immobilization level of each flow cell is ˜9000RU. Antibodies were captured in FC2 by anti-human Fc IgG or anti-mouse Fc (GE Healthcare) to 200˜300RU. FC1 was used as the reference cell. Antigen was injected at varying concentrations (2.5 nM, 5 nM, 10 nM, 20 nM, 40 nM and 80 nM) after capture of antibody. The association time for antibody binding antigen is 180s. Surface Regeneration condition is 120s at 10 μl/min in Gly pH1.5. The signals with captured antibody subtracted from those without captured antibody were calculated with Biacore X100 evaluation software ver. 2.0 (Biacore).

[4] = target: T1, Recombinant Human VEGFR2/KDR Protein, …; experiment: SPR (Biacore), antibody captured by anti-Fc, antigen 2.5-80 nM
Summary of the method: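 Human or mouse Fc-captured antibody (200–300 RU) on anti-Fc CM5 surface; antigen injected at 2.5–80 nM in HBS-EP pH 7.4 with 180 s association. Reference-cell-subtracted sensorgrams; regeneration with glycine pH 1.5.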

[5] = target: T1, Recombinant Human VEGFR2/KDR Protein, …; experiment: competition ELISA: hVEGFR2-his coated (1 ug/ml), antibody titrated, then 0.3 ug/ml hVEGF-A added and bound VEGF-A detected; blocked ligand hVEGF-A
Method: High-binding clear polystyrene 96 well plates were coated with 100 μl/well of 1 μg/ml hVEGFR2-his overnight at 4° C. After washing and blocking, serial diluted antibodies (from 10 μg/ml to 0.0006 μg/ml) were added and incubate for 1 hour at RT. 0.3 μg/ml hVEGF-A (Acrobiosystem, Cat #VE5-H4210) were added and incubated for 2 hour at RT. Then 100 μl/well of 0.25 μg/ml Biotinylated Rabbit Anti-human VEGF-A (Peprotech, Cat #400-P10Bt) was then added for detecting bound VEGF-A. Then 100 μl/well of a solution of HRP conjugated Neutravidin antibody (Pierce, Cat #31001) and TMB were added sequentially. Finally, reaction was terminated using 0.64M H₂SO₄ and plates were read at 450 nm.

[6] = target: T2, human VEGFR2 on HUVEC cells (human, UniProt P35968 20-1356); experiment: flow cytometry on HUVEC cells, percent shifted cells (Shift%), anti-mouse IgG-PE
T2 construct: also called hVEGFR2 on HUVEC
T2 sequence (P35968 20-1356 V297I/Q472H limits assumed): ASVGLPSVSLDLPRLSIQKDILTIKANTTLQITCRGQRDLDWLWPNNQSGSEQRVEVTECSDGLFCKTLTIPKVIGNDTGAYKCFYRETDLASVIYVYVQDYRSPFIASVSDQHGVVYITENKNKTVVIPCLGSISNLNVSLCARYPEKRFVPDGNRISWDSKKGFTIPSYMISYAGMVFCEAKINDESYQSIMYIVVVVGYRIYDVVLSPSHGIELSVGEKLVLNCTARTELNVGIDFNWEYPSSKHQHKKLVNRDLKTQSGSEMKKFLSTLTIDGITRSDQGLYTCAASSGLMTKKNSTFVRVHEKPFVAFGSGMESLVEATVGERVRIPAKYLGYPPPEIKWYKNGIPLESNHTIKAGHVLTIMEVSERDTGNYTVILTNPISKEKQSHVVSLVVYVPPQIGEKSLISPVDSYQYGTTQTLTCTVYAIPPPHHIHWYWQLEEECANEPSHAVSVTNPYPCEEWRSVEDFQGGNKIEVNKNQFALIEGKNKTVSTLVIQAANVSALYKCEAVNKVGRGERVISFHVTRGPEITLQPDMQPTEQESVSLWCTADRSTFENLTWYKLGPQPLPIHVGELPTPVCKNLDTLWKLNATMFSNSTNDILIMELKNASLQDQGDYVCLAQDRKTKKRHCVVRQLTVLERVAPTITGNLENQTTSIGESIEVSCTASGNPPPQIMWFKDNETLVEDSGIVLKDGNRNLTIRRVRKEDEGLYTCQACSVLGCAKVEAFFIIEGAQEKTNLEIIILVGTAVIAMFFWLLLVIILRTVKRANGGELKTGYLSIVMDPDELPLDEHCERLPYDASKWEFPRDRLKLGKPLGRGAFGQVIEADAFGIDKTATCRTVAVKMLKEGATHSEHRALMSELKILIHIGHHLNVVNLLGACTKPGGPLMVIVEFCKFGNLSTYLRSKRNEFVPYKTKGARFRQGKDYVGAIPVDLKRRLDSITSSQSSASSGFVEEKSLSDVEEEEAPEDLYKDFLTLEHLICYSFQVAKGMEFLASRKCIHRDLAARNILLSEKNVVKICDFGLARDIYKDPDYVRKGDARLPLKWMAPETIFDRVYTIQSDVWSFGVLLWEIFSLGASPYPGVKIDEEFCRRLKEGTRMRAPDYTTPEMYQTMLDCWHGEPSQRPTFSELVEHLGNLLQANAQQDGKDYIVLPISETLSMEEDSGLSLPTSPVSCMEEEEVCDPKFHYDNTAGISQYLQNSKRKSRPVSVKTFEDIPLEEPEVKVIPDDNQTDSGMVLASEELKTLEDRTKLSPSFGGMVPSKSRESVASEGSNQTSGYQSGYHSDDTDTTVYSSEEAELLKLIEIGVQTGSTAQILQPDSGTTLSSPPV
Method: Log phase HUVEC cells were collected, counted and resuspended in FACS buffer (5% BSA+PBS). 2×10∧5 cells were added to each tube and then washed once with PBS (1500 rpm, 5 mins, RT). Then […] serial diluted VEGFR2 antibodies purified from hybridoma supernatant in FACS buffer were added into corresponding tubes and were incubated at 4° C. for 1 hr. The cells were then washed twice with 1 ml PBS, followed by adding 100 μl/tube of 2nd antibody (1:400 anti-mIgG (H+L)-PE, Cell signaling #8887) in FACS buffer. The cells were incubated at 4° C. for 0.5 hr and then washed twice with PBS, followed by resuspending cells in 600 μl PBS for each sample. The cells were then transferred into FACS tube and the bindings of the antibodies to the cells were detected using flow cytometry (BD Accuri C6) (see FIG. 3).
The percentage of positive binding cells was calculated and fit by Graphpad Prism Software.

[7] = target: T3, mouse VEGFR2 (mouse, UniProt P35918 20-762, limits assumed); experiment: ELISA, mouse VEGFR2 coated (500 ng/mL), goat anti-human HRP
T3 sequence (P35918 20-762 limits assumed): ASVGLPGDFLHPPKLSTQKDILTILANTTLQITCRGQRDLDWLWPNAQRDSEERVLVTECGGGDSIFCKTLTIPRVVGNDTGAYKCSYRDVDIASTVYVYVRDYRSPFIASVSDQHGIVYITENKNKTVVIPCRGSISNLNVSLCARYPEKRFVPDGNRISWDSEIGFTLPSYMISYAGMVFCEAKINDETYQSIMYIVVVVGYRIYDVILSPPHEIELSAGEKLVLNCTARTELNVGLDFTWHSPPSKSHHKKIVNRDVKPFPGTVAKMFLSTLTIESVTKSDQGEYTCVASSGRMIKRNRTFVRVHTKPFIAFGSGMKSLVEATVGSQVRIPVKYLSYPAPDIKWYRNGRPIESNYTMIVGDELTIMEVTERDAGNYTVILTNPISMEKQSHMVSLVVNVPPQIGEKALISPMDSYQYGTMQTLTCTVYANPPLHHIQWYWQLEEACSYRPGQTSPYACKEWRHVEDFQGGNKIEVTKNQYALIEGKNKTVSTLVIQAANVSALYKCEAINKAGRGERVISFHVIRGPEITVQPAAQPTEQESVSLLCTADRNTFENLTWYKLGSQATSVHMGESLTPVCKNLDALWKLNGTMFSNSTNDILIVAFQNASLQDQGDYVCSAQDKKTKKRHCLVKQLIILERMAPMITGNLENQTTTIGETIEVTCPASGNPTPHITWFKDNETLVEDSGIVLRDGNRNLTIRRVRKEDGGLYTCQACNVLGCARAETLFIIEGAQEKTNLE
Method: (§1) ELISA binding assay was conducted to confirm its binding affinity. Briefly, ELISA plates were coated with 500 ng/mL mouse VEGFR2 in coating buffer (0.16% Na₂CO₃, 0.30% NaHCO₃) and incubated at 4° C. overnight. After twice washing, blocking buffer (1% BSA, 1% goat serum, 0.05% Tween20 in PBS) was added and plates were incubated at room temperature for 2 hours. After three times washing, serial diluted chimeric-DC101 was added in dilution buffer (1% BSA, 1% goat serum, 0.01% Tween20 in PBS) and plates were incubated at room temperature for 3 hours. After three times washing, goat anti-human HRP (1:5000 diluted) was added and plates were incubated at room temperature for 1 hour. Finally, after three times washing, TMB was added and 4 mins later 0.16 mol/L sulfuric acid was added to terminate the reaction. OD450 nm was read and recorded.

[8] = target: T3, mouse VEGFR2; experiment: ELISA, 500 ng/mL mouse VEGFR2 coated, three lots
Method: as §1

[9] = target: T3, mouse VEGFR2; experiment: competition ELISA: human VEGF165 coated (250 ng/mL), antibody titrated with 1000 ng/mL mouse VEGFR2, bound mouse VEGFR2 detected; blocked ligand human VEGF165
Method: ELISA blocking assay was conducted to confirm its VEGF blockade activity. Briefly, ELISA plates were coated with 250 ng/mL recombinant human VEGF165 in coating buffer and incubated at 4° C. overnight. After twice washing, blocking buffer was added and plates were incubated at room temperature for 2 hours. After three times washing, serial diluted chimeric-DC101 was added in dilution buffer and then 1000 ng/mL mouse VEGFR2 was added. Plates were incubated at room temperature for 3 hours. After three times washing, polyclonal anti-mouse VEGFR2 with mouse Fc (1: 1000) was added and plates were incubated at room temperature for 1 hour. After three times washing, goat anti-mouse HRP (1:5000 diluted) was added and plates were incubated at room temperature for 1 hour. Finally, after three times washing, TMB was added and 4 mins later 0.16 mol/L sulfuric acid was added to terminate the reaction. OD450 nm was read and recorded.

IC50 (read off the curve) [1]: ~0.1 µg/mL | EC50 [2]: 0.00809 µg/mL | koff [3]: 1.22e-05 s⁻¹ | koff [4]: 9.12e-05 s⁻¹ | kon [4]: 91800 M⁻¹ s⁻¹ and 97000 M⁻¹ s⁻¹ | IC50 [5]: 0.0433 µg/mL | EC50 [6]: 0.0612 µg/mL
B1: 054 (mouse hybridoma antibody) (antibody, V domains shown)
VH: EVQLVESGGDLVKPGGSLKLSCAASGFTFSMYGMSWVRQTPDKRLEWVASISIGGSYTYYADSVEGRFIISRENAKNTLFLQMNSLKSEDTALYYCARELDGNYDYWGQGTTLTVSS
VL: HIMITQDELSNPVTFGESVSISCRSSKSLLYKDGKTYLNWFLQRPGQSPQLLIYLMSTRASGVSDRFSGSGSGTDFTLEISRVKAEDVGIYYCQQLVEYPFTFGSGTKLEIK
notes: Mouse antibody purified from hybridoma; also called mAb054; 10D11

EC50 [7]: 0.0645 µg/mL and 0.0477 µg/mL and 0.0764 µg/mL | EC50 [8]: ~0.06 µg/mL | IC50 [9]: 0.301 µg/mL and 0.28 µg/mL and 0.265 µg/mL
B2: chimeric-DC101 (anti-mouse VEGFR2 antibody DC101 with human IgG1 Fc) (antibody, V domains shown)
VH: EVQLVETGGGLVQPGNSLKLSCATSGFIFSTTWMNWIRQTPGKRLEWLAQIEDKSNNYFISYSESVKGRFTISRDDSKSSVYLQMNNLKEEDTAIYYCSWKYRSNYYFDYWGQGVMVTVSS
VL: DIVLTQSPALAVSLEQRATISCKTSQNVDYYGISYLHWYQQKPGQQPKLLIYEGSNLASGIPARFSGSGSGTDFTLTIDPVEADDIVTYYCQQSKDYPYTFGAGTKLELKR
